Measured values taken from patent US20070049518A1, “Novel method of treatment of inflammatory skin conditions” (priority 2005, published 2007).
Where two headings read alike, the source gives them in different places.

Key:
single chain pro-uPA = assay: Activation of pro-uPA by aureolysin; format: biochemical; conditions: Expt. 1, 2.5 h
[1] = target: T1, proenzyme of human rheumatoid synovial fibroblast collagenase (proMMP-1) (Homo sapiens, UniProt P03956); format: biochemical; conditions: for α1-chain ¾ - length product: aureolysin 3 μg/ml and/or 1 mM APMA
T1 construct: the proenzyme of human rheumatoid synovial fibroblast collagenase (Calbiochem); purchased Calbiochem; host or cells: human rheumatoid synovial fibroblasts (as the product's name says)
T1 sequence (P03956 20-469): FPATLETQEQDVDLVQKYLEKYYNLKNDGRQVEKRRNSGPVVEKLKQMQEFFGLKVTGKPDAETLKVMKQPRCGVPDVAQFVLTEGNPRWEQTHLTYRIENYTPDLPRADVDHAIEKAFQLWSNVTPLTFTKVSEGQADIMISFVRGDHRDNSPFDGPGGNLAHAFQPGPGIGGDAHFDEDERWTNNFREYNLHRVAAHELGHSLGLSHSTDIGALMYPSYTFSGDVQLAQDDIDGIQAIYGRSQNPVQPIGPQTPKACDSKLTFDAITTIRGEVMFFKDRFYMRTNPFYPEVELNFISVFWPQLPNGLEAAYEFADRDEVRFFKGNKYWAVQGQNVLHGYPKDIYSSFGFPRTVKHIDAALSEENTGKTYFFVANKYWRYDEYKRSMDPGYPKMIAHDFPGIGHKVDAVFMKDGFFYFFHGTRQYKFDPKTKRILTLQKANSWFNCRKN
Procedure: (§1) Collagenase activity in the samples was then determined by incubation at 25° C. in TCNB containing 0.1 μg/ml (pro)MMP-1 and 0.16 mg/ml porcine type I collagen (MD Biosciences).

[2] = test system: proenzyme of human rheumatoid synovial fibroblast collagenase (proMMP-1); format: biochemical; conditions: aureolysin alone±APMA
Procedure: as §1

[3] = test system: Human skin epidermal keratinocytes; assay: Keratinocyte activation, IL-8 production; format: cell-based; conditions: 48 hours, aureolysin 50 μg/ml
Text: Activated keratinocytes produce IL-8, a proinflammatory chemokine. Many bacterial products cause the activation of keratinocytes. Aureolysin may be evaluated for its effects on IL-8 production by keratinocytes. Human skin epidermal keratinocytes (TCS Cellworks) are maintained as per instructions. Proliferating cultures are trypsinised, harvested, treated with a trypsin inhibitor and resuspended in growth medium at approximately 50,000 cells/well, to provide confluent monolayers in 96 well plates. Cells are incubated overnight at 37° C. at 5% CO2 to allow recovery, the spent medium aspirated from the wells and replaced with fresh growth medium. The cells are incubated at 37° C. at 5% CO2 for a further 24 or 48 hours with aureolysin or buffer control.
The supernatants are removed from each well and the concentration of IL-8 is determined using a human IL-8 ELISA development kit from R&D systems (Catalog Number: DY208) using the manufacturers instructions.
In these experiments, the cells are incubated at 37° C. at 5% CO2 for 48 hours with aureolysin or buffer control. Poly IC and lipoteichoic acid (LTA), which stimulate IL-8 production in keratinocytes were used as positive controls.

## aureolysin: metalloprotease (EC 3.4.24.29) secreted by Staphylococcus aureus, single chain of 301 amino acids
Single chain pro-uPA; aureolysin 0.1 μg/ml, MES pH 5.6
  Urokinase activity after pro-uPA activation: 2.31 A405/0.5 h/μg
Single chain pro-uPA; aureolysin 0.1 μg/ml, Tris-HCl pH 7.5
  Urokinase activity after pro-uPA activation: 0.65 A405/0.5 h/μg
Single chain pro-uPA; aureolysin 0.3 μg/ml, MES pH 5.6
  Urokinase activity after pro-uPA activation: 3.76 A405/0.5 h/μg
Single chain pro-uPA; aureolysin 0.3 μg/ml, Tris-HCl pH 7.5
  Urokinase activity after pro-uPA activation: 1.43 A405/0.5 h/μg
Single chain pro-uPA; aureolysin 1 μg/ml, MES pH 5.6
  Urokinase activity after pro-uPA activation: 4.68 A405/0.5 h/μg
Single chain pro-uPA; aureolysin 1 μg/ml, Tris-HCl pH 7.5
  Urokinase activity after pro-uPA activation: 3.29 A405/0.5 h/μg
[1]; Time 0 h
  α1-chain ¾ - length product: 0 arbitrary units
[1]; Time 0.5 h
  α1-chain ¾ - length product: 1709 arbitrary units
[1]; Time 1 h
  α1-chain ¾ - length product: 3726 arbitrary units
[1]; Time 1.5 h
  α1-chain ¾ - length product: 5115 arbitrary units
[1]; Time 2 h
  α1-chain ¾ - length product: 8742 arbitrary units
[1]; Time 3 h
  α1-chain ¾ - length product: 12718 arbitrary units
[1]; Time 4 h
  α1-chain ¾ - length product: 16882 arbitrary units
[1]; Time 5 h
  α1-chain ¾ - length product: 17558 arbitrary units
[1]; Time 6 h
  α1-chain ¾ - length product: 19436 arbitrary units
[1]; relative to untreated control (MMP-1 alone = 1)
  Relative rate of collagen cleavage: 3
[2]
  collagenase activity of control incubations without proMMP-1 (in words): no activity
[3]
  IL-8 ± SE: 687 pg/mL
[3]; listed as Aureolysin
  IL-8 ± SE: 687 ± 0.7 pg/mL
